Data set [1] has as its target T1, TNFαR (the TNFα binding part of etanercept), P20333.
T1 chain: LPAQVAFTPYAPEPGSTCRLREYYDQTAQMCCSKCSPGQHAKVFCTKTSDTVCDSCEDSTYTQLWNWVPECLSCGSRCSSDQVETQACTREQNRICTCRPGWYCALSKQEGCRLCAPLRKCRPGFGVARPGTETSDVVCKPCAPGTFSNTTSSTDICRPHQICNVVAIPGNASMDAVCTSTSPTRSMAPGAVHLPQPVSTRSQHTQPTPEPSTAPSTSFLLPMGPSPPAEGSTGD

Data set [2] concerns the target Etanercept (native, fully glycosylated).
The target in data set [3] is Asialylated etanercept (etanercept treated with sialidase).

B1: LS (O-glycoprotein-specific endoprotease encoded by the Amuc1119 gene of Akkermansia muciniphila, with N-terminal Met and C-terminal GSG-His6) (protein)
chain: MEVTVPDALKDRIALKKTARQLNIVYFLGSDTEPVPDYERRLSELLLYLQQFYGKEMQRHGYGARSFGLDIKSPGRVNIIEYKAKNPAAHYPYENGGGWKAAQELDEFFKAHPDRKKSQHTLIIMPTWNDEKNGPDNPGGVPFYGMGRNCFALDYPAFDIKHLGQKTREGRLLTKWYGGMAHELGHGLNLPHNHQTASDGKKYGTALMGSGNYTFGTSPTFLTPASCALLDACEVFSVTPSQQFYEGKPEVEVGDVAISFKGDQILVSGNYKSPQTVKALNVYIQDPPYAVNQDYDAVSFSRRLGKKSGKFSMKIDKKELEGLNNNEFRISLMFILANGLHMQKHFTFHWDALQDYRDGSKSGSGHHHHHH
B1: the “hydrolysis and release from double-mutant resin, SDS-PAGE” value with Asialylated Abatacept was “could be hydrolyzed and eluted from the double-mutant-resin by LS in 6 h but had a slightly more complete elution after 24 h”; in data set [3], “could be hydrolyzed and eluted from the double-mutant-resin by LS in 6 h but had a slightly more complete elution after 24 h”. For the same protein, the entries for the “hydrolysis of substrate, SDS-PAGE” value in data set [1], in data set [2] and in data set [3] were “LS had activity in all samples except those treated with O-glycosidase”, “full hydrolysis after overnight incubation” and “LS was able to hydrolyze etanercept in the presence of sialidase”, respectively.

Values taken from patent US20230212543.
